Reference: paper PMC4320627, “Transcription factor MrpC binds to promoter regions of hundreds of developmentally-regulated genes in Myxococcus xanthus”

How the values were obtained:
[1] = molecular target: T1, FruA-His6 (Myxococcus xanthus) (UniProt Q1D7Q3); experiment: EMSA; conditions: 2 nM 32P-labeled DNA, 25 C, 15 min, buffer as in cited ref 127 (not given)
T1 sequence: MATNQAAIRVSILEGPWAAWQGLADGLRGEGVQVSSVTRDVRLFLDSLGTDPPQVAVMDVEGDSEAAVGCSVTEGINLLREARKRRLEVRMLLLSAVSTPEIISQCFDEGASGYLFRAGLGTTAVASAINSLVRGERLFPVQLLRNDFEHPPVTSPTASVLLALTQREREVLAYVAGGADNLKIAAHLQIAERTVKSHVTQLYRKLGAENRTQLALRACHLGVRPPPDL

His10-MrpC2 = molecular target: T2, His10-MrpC2 (Myxococcus xanthus, UniProt Q1D244 26-248); experiment: EMSA; 1 uM protein; EMSA, 2 nM 32P-labeled DNA, 25 C, 15 min; buffer as in cited ref 127 (not given); conditions: protein: recombinant; tags: N-terminal His10; chain copies: 2; label: 32P; blunt
T2 sequence: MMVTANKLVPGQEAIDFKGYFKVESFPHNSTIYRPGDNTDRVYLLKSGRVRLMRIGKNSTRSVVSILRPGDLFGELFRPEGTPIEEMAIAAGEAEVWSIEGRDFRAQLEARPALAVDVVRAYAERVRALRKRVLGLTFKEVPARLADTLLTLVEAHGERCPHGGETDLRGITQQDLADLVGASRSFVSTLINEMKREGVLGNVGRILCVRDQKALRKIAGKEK

GATTAGCACTACGCATGCCAACCCAGGTGCGCACTCCAAGCCCCCCAATTCTCAAGGCTTGGAACAATCCCCTCGGCGAGGATGGGTCCAGGGCTGACAAAATTCGGCAGTGACGCTGACGATAACTGTCGATCAGCCTACGCATCCGAAGCGCTCCCGGGCTCCAAGTCATCCGTCAGCCCATGCTTGGCCAACCGGTAGCGGAATGAACGGAACGAAAG (double strand) [pilA PCR]
binding [1]: no binding

CTCGTTTACGAACTCGTCTGGTCCAAGTACCTCGGGAATGTCCTGGGGAACAGCGGCCAGGCGCATGCCGTGGTGCTCGCCACGTTCATGGGAGGGCAAGCGCTGGGCGCATTTGTCTTCGGGCGGACAGCCGACCGGGCAAAGAACCCCCTGGCCCTTTACGGCCTGCTGGAGCTGGGCGTGGGCCTGTACGCGCTGGTCTTC (double strand) [mrpA PCR]
binding [1]: binds more weakly

CAAGGTGATGATGTGCGTCGAGGCTATCGGCCATGTGCGGGAGCGTCAATGTTCGGACCGGGCGGAATTCCGGCTGCCCGGGGAGCGGGCAAGCGCCGTCACACAGCCGACGTTTCCGTCACTGAGGGTACGTCGGGTACGTCACTGGCTCGACGGAGATGGGCGGCCAGGAGTGCGGCGTGCGCGGCGCGGGCGGGAGCGAATACAGCGGCTCG (double strand) [frzS PCR]
binding [1]: no binding

CGAGCTCCTGTGAACCGAAGTCATGCTGCTGGTAGGAGCCCGCTGGGTCTGCCCAGACCTCGCCAATGAGGCGCTGGTCCATTAATTGCTCAACGCAACAACTTGCGAAGCAGTCTGTCGGCTACTTGACCGTGCTTGCCAGTGAATGAGAAGTGACGCCTGCGTGCTGACCGTAATGGGACAGGCGGGGACCATGTATATGAGGTGGAAGAAGC (double strand) [MXAN_5802 PCR]
binding [1]: no binding

GGCGAACGGGACTTTCCTTCTCCAAGGTTCGTGCCAGCGGGAATTGAAATGCCGCCGGGACAACACCTCCTGAAATGCCGGGTACTTAGCGCTACAGGCCCGCACCAGAGCCCGTTCTGTGTCCAAAACCTGAAACAGAACGTTCAAACAGTCTGATCAATTTGAACGAAACGTTCAAACCGGGGGCATGAGTGTCGGAGCAG (double strand) [mrpC upstream PCR]
binding [1]: no binding

CCAGGGAACGTAGAAGTCTGGCAGTTCGAATGGCTGCTTGTTTTTCGCCGTACTCATGGACGCCCCTCGTTGAACTCAGGGGGGCGTTATAGTTAGGCGCTGAACACTTATCCAAGTGTTTCTTGCATAAAAGATTCTCTGGAGAAGTCGCGATTTGCCTGCTGGCGCACGGATTTAGCTCCATCCGTGCGCCGTATTGCTC (double strand) [MXAN_6247 PCR]
binding [1]: binds

GTACCAACTCGCGCACGTCGGGTGCGGGCAGTCCGTAGCGCTGGCCGTTCAGGGTGAACAGCAGCACCTCCGTGGGTGCGGGGGTCATGTCCTGGGACATAAGACGTGGGCGTGGCCACTGTCGAACATTGATGTCGGCCCGCGGTCGCGGTGTCCACCAGTCCTCAGTGGAGGCAGGAGGAGGGGCCCATGGTTCGGGGGGAACACGACAGGTGCTCGCTGTGC (double strand) [cheW6a PCR]
binding [1]: binds

GGATTTGCCTTTGCACCTCCAGAACCACCAGTGGGTGAAACAATGTCAACGGGAGTCCTTCGCCACGGCCTTGATTGTCCCTTAGCAAACACAGTGAACCGCACAGCGACAAGGCAGGAATTCGCCCACGCTGGACTCACGGCACGTCGGAAGCATCTCTTGGGAATCAAGAATTGAGTGAGGTCCATCGCCCTGCAATCGATGGCAAAGAG (double strand) [pkn8 PCR]
binding [1]: no binding

GTCTTCCTTGTTGATGAGCCCCGGAGGGGCCATCGCGGTGGGCATAGCGCTCGCAGCGGAGCCCTTCTTCTTCTCATCGGACATGAAATTCAGCCTTTTCTCTTCGACAACCAGTGAACATTTCCAGGTTTTCTGCGGCGGATGAACCAACGTAACAACCAAAACGGACATGGCAAACGCAGTGTGCGTTTTTCCGCCCCCCGTCACCTCTCCAGGGTTCCTCGGAAGTC (double strand) [bsgA PCR]
binding [1]: binds

GTGGGCATCCACGAAGCGCGCCCCGGACTGGTGCGCCCCCTGCTGTCGTGCACGCGGGAGGAGGTGGTGGCCTTCCTGGCGGAGCAGGGTGTCGCCTATGTGACAGACCCGATGAACACCGACCCTGTCCACTTCCGGACGCGCGTTCGCCTTGGAGTGCTACCCGCCCTGTCGCGCGCCGCTGGCTTCGCGGTGGAGG (double strand) [MXAN_4360 PCR]
binding [1]: binds more weakly

B1: MXAN_0524 probe C (dsDNA)
DNA 1: CATCCAGCCCACCTGTCCTCCACTGAACACGTACTGGCAC
DNA 2: GTGCCAGTACGTGTTCAGTGGAGGACAGGTGGGCTGGATG
binding result (His10-MrpC2): binds

B2: MXAN_0524 probe A (dsDNA)
DNA 1: CCGTCCCAACAACTGATACACAGTCAACGTTTCTCCATCC
DNA 2: GGATGGAGAAACGTTGACTGTGTATCAGTTGTTGGGACGG
binding result (His10-MrpC2): binds

B3: MXAN_0524 probe B (dsDNA)
DNA 1: CACAGTCAACGTTTCTCCATCCAGCCCACCTGTCCTCCAC
DNA 2: GTGGAGGACAGGTGGGCTGGATGGAGAAACGTTGACTGTG
binding result (His10-MrpC2): no binding
